These results are taken from PMC4564306.

In assay [1] the target is LexA-Rab10 Q68L (mouse) (UniProt P61027). The experiment in a line: two-hybrid.
Assay [2] addresses LexA-Rab10 wild-type (mouse) (UniProt P61027). Put plainly: two-hybrid.

“GAD-Exoc6 CT (from UniProt Q8TAG9-1 384-797) (domain or fragment)”: the 3-aminotriazole concentration that suppresses growth in assay [1] came out at 1 mM.

B1: GAD-Exoc6b CT (domain or fragment)
chain: SDPNLVLDLKNLIVLFADTLQVYGFPVNQLFDMLLEIRDQYSETLLKKWAGIFRNILDSDNYSPIPVTSEEMYKKVVGQFPFQDIELEKQPFPKKFPFSEFVPKVYNQIKEFIYACLKFSEDLHLSSTEVDDMIRKSTNLLLTRTLSNSLQNVIKRKNIGLTELVQIIINTTHLEKSCKYLEEFITNITNVLPETVHTTKLYGTTTFKDARHAAEEEIYTNLNQKIDQFLQLADYDWMTGDLGNKASDYLVDLIAFLRSTFAVFTHLPGKVAQTACMSACKHLATSLMQLLLEAEVRQLTLGALQQFNLDVRECEQFARSGPVPGFQEDTLQLAFIDLRQLLDLFIQWDWSTYLADYGQPNCKYLRVNPVTALTLLEKMKDTSRKNNMFAQFRKNERDKQKLIDTVAKQLRGLI
In the case of B1, the values for the 3-aminotriazole concentration that suppresses growth in assay [1] and in assay [2] were 50 mM and 1 to 5 mM, respectively.
